The values that follow come from PMC7023979.

The experiment deals with SIVrcm integrase A119D (simian immunodeficiency virus from red-capped mangabeys (SIVrcm)). Description: cryo-EM structure.

Take SIVrcm integrase A119D (enzyme): the stoichiometry N (as a rule, the number of molecules, sites or subunits per partner or assembly) came out at 4.
